Reference: the supplement of paper PMC10724198
± gives the standard deviation of the averaged measurements.

What follows are sequences tested on Saccharomyces cerevisiae (assay: protein stability index of tFT-peptide fusion (C-terminal peptide) (PSI (0-1 scale)); higher = more stable (slower turnover)). Details: genetic background: wild type; temperature: 30 C.
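Also: PSI is a weighted mean of sequencing reads over stability bins, variants kept only with over 10 reads, mCherry proximal and sfGFP distal, peptide attached via GGGS linker.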

Sequence | protein stability index
RCGVAGVVCGSG | 0.615 ± 0.039
YRPPSPPSPLPP | 0.674 ± 0.007
ERRKSKRKNENE | 0.674 ± 0.0084
RRCCLDPGGLLS | 0.607 ± 0.0078
REWVAGGGVVGV | 0.679 ± 0.031
KNKRKTNLRKKT | 0.6961 ± 0.00039
SCPQSSLASVYA | 0.529 ± 0.029
GGGGGGGGRGWG | 0.63411 ± 1.7e-05
WCGNGFVKKGGL | 0.655 ± 0.007
PPFPPPCFPPPL | 0.72 ± 0.0084
GGGWDWWFGVPG | 0.792 ± 0.13
HSSSASPPISSF | 0.657 ± 0.041
CCLLYPAVYTTQ | 0.62 ± 0.046
FRLPMIRVCWSL | 0.569 ± 0.025
VSRDVMYLGLGG | 0.721 ± 0.18
VGGGGGGGWWHW | 0.805 ± 0.011
KDKKKNQNRKKN | 0.661 ± 0.038
GGWGWGERRSRE | 0.658 ± 0.06
GVGLIGVLTCGL | 0.636 ± 0.02
PPLPPPIPLRPP | 0.539 ± 0.02
FLLPPPPRASSF | 0.736 ± 0.066
VKESILVGRYDC | 0.709 ± 0.016
AGDGCGDWGRLS | 0.761 ± 0.11
AQTTRGGRRGDE | 0.657 ± 0.034
AAKGSVRLFHVF | 0.561 ± 0.017

Sequence | protein stability index
RLPPRPPPRPPT | 0.6514 ± 0.006
TSPSPLPPLFFT | 0.706 ± 0.0087
RRRTDDSTPGRA | 0.686 ± 0.025
GKLKVKIYESSK | 0.658 ± 0.061
AGIFGGGRGGSV | 0.697 ± 0.0048
GRGAGQAGKKKI | 0.631 ± 0.0073
PPPAPSPLPLFP | 0.7 ± 0.045
FSGFGERFMISS | 0.6917 ± 0.0033
PPAPTPLSPLAS | 0.693 ± 0.051
PRPRQPPPPPPP | 0.689 ± 0.0076
RVCFSLGAEFSF | 0.665 ± 0.055
SASPLRPPFLLL | 0.635 ± 0.09
PVSSLHFPLPGF | 0.677 ± 0.027
GGGRVSAGGDSG | 0.751 ± 0.071
ERSRKVSWRFIR | 0.6746 ± 0.0033
LGRKWDCLGRYV | 0.637 ± 0.06
NMVIRLIEKRKK | 0.663 ± 0.021
LEFFPSSRFFGF | 0.773 ± 0.026
VTNGGGMGWYRR | 0.652 ± 0.078
CVLVVGGPAGGG | 0.575 ± 0.063
RGGGRGGSRTGA | 0.712 ± 0.033
FVVGGGLRMGAG | 0.62253 ± 0.00043
YPSTPPPPPHPA | 0.687 ± 0.1
VGLGGTGGESRY | 0.706 ± 0.027
GGGGGGIGVGMG | 0.705 ± 0.024

Sequence | protein stability index
PPPLSPFTTPPS | 0.7493 ± 0.00077
PPRPPSPPPPSP | 0.632 ± 0.02
GRLGSSRIVGKS | 0.692 ± 0.017
LQTLSTLLPSLL | 0.689 ± 0.023
FVSLEVLFISSL | 0.5609 ± 0.0016
MTSSYLCWDVIG | 0.632 ± 0.071
EPGREKRRIVQK | 0.679 ± 0.042
FVPLFVFSCSRS | 0.5 ± 0.014
LTLPPLPPPSLP | 0.707 ± 0.0081
VGRGGPGVGGSW | 0.736 ± 0.043
LAVLRFHLRRHL | 0.668 ± 0.065
FLLIFHSSPLPV | 0.574 ± 0.05
RWSVIHARLLSP | 0.846 ± 0.19
RLRPPPRTLPTP | 0.722 ± 0.011
FLASPTPSHPRL | 0.787 ± 0.091
IKRIDQYEKQNK | 0.659 ± 0.07
CEITISQEQSAS | 0.624 ± 0.022
KKKKKTNKDKGQ | 0.66 ± 0.067
HGIGRDTSEHGR | 0.645 ± 0.025
GAGLPSGLRIGL | 0.647 ± 0.025
LNVVLTRTSVRY | 0.657 ± 0.041
PTPTAPEPIHPS | 0.61 ± 0.0025
RPPSPILPSSSP | 0.714 ± 0.077
KIERSKKKRRKG | 0.66 ± 0.079
LRRAFPSSTPLK | 0.698 ± 0.088

Sequence | protein stability index
PSPPAPLSLLLP | 0.645 ± 0.074
PPPPSPPLTRSL | 0.783 ± 0.08
LMDIPGNPRSLY | 0.604 ± 0.072
SPPSLLATVYFF | 0.7065 ± 0.0015
GLIRGFLRYPGM | 0.691 ± 0.033
DGWSEAGQGGKG | 0.679 ± 0.034
ILKQYLHRRFEF | 0.709 ± 0.057
PLSPSFAPPSPA | 0.69672 ± 0.00044
GLVGSGFVCIGM | 0.697 ± 0.15
LFQVRLVDLSRI | 0.674 ± 0.049
LSGRGVGSEGME | 0.721 ± 0.14
VLLSTLHLRGFG | 0.537 ± 0.04
GGGLLMVAASRC | 0.634 ± 0.014
VYTIHECADMLY | 0.712 ± 0.045
PLPFSTSPYAGR | 0.675 ± 0.011
EGDGQGWGGQGG | 0.702 ± 0.03
EKSRSLACQHST | 0.6725 ± 0.0052
TLYEVHQSENSR | 0.666 ± 0.016
PPPSPPSVPRAS | 0.643 ± 0.027
PSTSCQRLLTLT | 0.639 ± 0.018
TPPPTPSLPTRP | 0.677 ± 0.057
GCMGGYAFFSGG | 0.571
PLPHPPPLALRT | 0.655 ± 0.063
LFPGVHRVEDRA | 0.675 ± 0.034
VRFSVKPAFVRV | 0.577 ± 0.032

Sequence | protein stability index
KNSKNIRNKTNE | 0.711 ± 0.017
LVAYSPRFLHSP | 0.669 ± 0.038
LWCDPVLVLELR | 0.776 ± 0.072
GRGGGGGAVGEW | 0.683 ± 0.037
VGCACGYGGCGL | 0.682 ± 0.058
SPPRPPSLPPPG | 0.67 ± 0.071
EMEHANDARRVS | 0.67 ± 0.015
LIKATAYRTNRQ | 0.745 ± 0.044
GPYDLVSAPCLG | 0.753 ± 0.057
GVLSLFLLDTSQ | 0.7376 ± 0.0061
KWNVFRKGRGNI | 0.793 ± 0.047
RLLFLPPPPPPP | 0.654 ± 0.082
PSTPSPSCAPPS | 0.7087 ± 0.0017
SLYERYGRFNSS | 0.656 ± 0.027
GPSIRWWGGGRR | 0.731 ± 0.049
PPPSPCHPPSPP | 0.67 ± 0.12
FIFPPLFFSPVL | 0.788 ± 0.13
RPSTHPPATPPR | 0.695 ± 0.07
LGSITDRLLRRR | 0.772 ± 0.14
SRDSGLIDPRFS | 0.66973 ± 0.00044
HLLRGSSPDRYV | 0.737 ± 0.019
SCSDPPSPLPLS | 0.686 ± 0.0088
LMQTGVNNQNTT | 0.72 ± 0.035
PPLLPYHPTRFD | 0.713 ± 0.012
REKLINEKRIRR | 0.704 ± 0.012

Sequence | protein stability index
GGGRGGAAEGAV | 0.781 ± 0.07
SFMYCDLLLFGS | 0.59 ± 0.068
VWGGGLLVGAGW | 0.669 ± 0.035
ARPPLARITRPS | 0.686 ± 0.015
SEKGPRRSRVWD | 0.745 ± 0.046
FSELTGFMSVRG | 0.652 ± 0.025
GVICALPPVVGR | 0.685 ± 0.071
FHDVVSKKHSLK | 0.705 ± 0.032
QTYNKRKGAIRA | 0.616 ± 0.016
CGVCSAGIFVGG | 0.761 ± 0.026
RLPSAPPRQPTH | 0.667 ± 0.061
FDSVAVLYSGGV | 0.66 ± 0.0078
PPPLPSPLPLPP | 0.644 ± 0.033
HGPGGFRAGTGE | 0.724 ± 0.027
PPPPCPSYLPPS | 0.693 ± 0.046
TYRYWGTLRYYD | 0.761 ± 0.07
KTDSEPNKRIHK | 0.707 ± 0.09
CVGILGAVKSGM | 0.71 ± 0.098
HPTLPSLQVSPS | 0.689 ± 0.031
PQIVRSFLLFPP | 0.69 ± 0.0076
RTSKSCVEFTMG | 0.661 ± 0.011
